Assay results: US20240209106A1 (BEIGENE SWITZERLAND, published 2024)
Substitutions are numbered along the chain they refer to. Names may count otherwise.

B1: A-CD137×CEA-M1 (bispecific antibody, human IgG1, kappa)
heavy: QVQLVQSGAEVKKPGASVKVSCKASGYIFTSYYLHWVRQAPGQGLEWIGYINPQTGKTSYAQKFQGRVTMTRDTSTSTVYMELSSLRSEDTAVYYCAREYGNYNYPLDYWGQGTLVTVSSASTKGPSVFPLAPSSKSTSGGTAALGCLVKDYFPEPVTVSWNSGALTSGVHTFPAVLQSSGLYSLSSVVTVPSSSLGTQTYICNVNHKPSNTKVDKKVEPKSCDKTHTCPPCPAPPAAGPSVFLFPPKPKDTLMISRTPEVTCVVVDVSHEDPEVKFNWYVDGVEVHNAKTKPREEQYNSTYRVVSVLTVLHQDWLNGKEYKCKVSNKALAAPIEKTISKAKGQPREPQVYTLPPSREEMTKNQVSLTCLVKGFYPSDIAVEWESNGQPENNYKTTPPVLDSDGSFFLYSKLTVDKSRWQQGNVFSCSVMHEALHNHYTQKSLSLSPGKGGGGSEVQLLESGGGLVQPGGSLRLSCAASGFTLSAEDMGWVRQAPGKGLEWVSAILDFGGSTYYAESVKGRFTISRDNAKNTLYLQMSSLRAEDTAVYYCARVVYHAGGGVTFDYWGQGTLVTVSS
light: DIQMTQSPSSLSASVGDRVTITCRASENQYGYLAWYQQKPGKVPKLLIYNYKNLVEGVPSRFSGSGSGTDFTLTISSLQPEDVATYYCQHHLGTPYTFGQGTKVEIKRTVAAPSVFIFPPSDEQLKSGTASVVCLLNNFYPREAKVQWKVDNALQSGNSQESVTEQDSKDSTYSLSSTLTLSKADYEKHKVYACEVTHQGLSSPVTKSFNRGEC
B2: BE-942 (ZW 1+1) (bispecific antibody, human IgG1, L234A L235A)
heavy 1: QVQLVQSGAEVKKPGASVKVSCKASGYIFTSYYLHWVRQAPGQGLEWIGYINPQTGKTSYAQKFQGRVTMTRDTSTSTVYMELSSLRSEDTAVYYCAREYGNYNYPLDYWGQGTLVTVSSASTKGPSVFPLAPSSKSTSGGTAWLGCEVTDYFPEPVTVSWNSGALTSGVHTFPAVLESSGLYSLSSVVTVPSSSLGTQTYICNVNHKPSNTKVDKKVEPKSCDKTHTCPPCPAPEAAGGPSVFLFPPKPKDTLMISRTPEVTCVVVSVSHEDPEVKFNWYVDGVEVHNAKTKPREEQYNSTYRVVSVLTVLHQDWLNGKEYKCKVSNKALPAPIEKTISKAKGQPREPQVYVLPPSRDELTKNQVSLLCLVKGFYPSDIAVEWESNGQPENNYLTWPPVLDSDGSFFLYSKLTVDKSRWQQGNVFSCSVMHEALHNHYTQKSLSLSPGK
light: B1 light with F116A, Q124R, L135V, T178R
heavy 2: not shown
B3: BE-755 (ZW1+2) (bispecific antibody, human IgG1, L234A L235A)
heavy 1: B2 heavy 1
light: B1 light with F116A, Q124R, L135V, T178R
heavy 2: not shown
B4: BE-562 (E-muFc-BGA-5623) (bispecific antibody)
heavy: EVQLLESGGGLVQPGGSLRLSCAASGFTVSAEDVGWVRQAPGKGLEWVSAILDKGGSTYYAESVKGRFTISRDNAKNTLYLQMSSLRAEDTAVYYCARIVYHAGGGVTFDTRGQGTQVTVSSEPKSSDKTHTCPPCPAPPAAGPSVFLFPPKPKDTLMISRTPEVTCVVVDVSHEDPEVKFNWYVDGVEVHNAKTKPREEQYNSTYRVVSVLTVLHQDWLNGKEYKCKVSNKALAAPIEKTISKAKGQPREPQVYTLPPSREEMTKNQVSLTCLVKGFYPSDIAVEWESNGQPENNYKTTPPVLDSDGSFFLYSKLTVDKSRWQQGNVFSCSVMHEALHNHYTQKSLSLSPGKGGGGSQVQLVQSGAEVKKPGASVKVSCKASGYIFTSYYLHWVRQAPGQGLEWIGYINPQTGKTSYAQKFQGRVTMTRDTSTSTVYMELSSLRSEDTAVYYCAREYGNYNYPLDYWGQGTLVTVSSASTKGPSVFPLAPSSKSTSGGTAALGCLVKDYFPEPVTVSWNSGALTSGVHTFPAVLQSSGLYSLSSVVTVPSSSLGTQTYICNVNHKPSNTKVDKKVEPKSCD
light: B1 light
B5: BE-375 (E-IgG1-BGA-5623) (bispecific antibody)
heavy: not shown
light: B1 light
B6: BE-244 (A-(G4S)3-BGA-5623) (bispecific antibody, human IgG1, kappa)
heavy: QVQLVQSGAEVKKPGASVKVSCKASGYIFTSYYLHWVRQAPGQGLEWIGYINPQTGKTSYAQKFQGRVTMTRDTSTSTVYMELSSLRSEDTAVYYCAREYGNYNYPLDYWGQGTLVTVSSASTKGPSVFPLAPSSKSTSGGTAALGCLVKDYFPEPVTVSWNSGALTSGVHTFPAVLQSSGLYSLSSVVTVPSSSLGTQTYICNVNHKPSNTKVDKKVEPKSCDKTHTCPPCPAPPAAGPSVFLFPPKPKDTLMISRTPEVTCVVVDVSHEDPEVKFNWYVDGVEVHNAKTKPREEQYNSTYRVVSVLTVLHQDWLNGKEYKCKVSNKALAAPIEKTISKAKGQPREPQVYTLPPSREEMTKNQVSLTCLVKGFYPSDIAVEWESNGQPENNYKTTPPVLDSDGSFFLYSKLTVDKSRWQQGNVFSCSVMHEALHNHYTQKSLSLSPGKGGGGSGGGGSGGGGSEVQLLESGGGLVQPGGSLRLSCAASGFTVSAEDVGWVRQAPGKGLEWVSAILDKGGSTYYAESVKGRFTISRDNAKNTLYLQMSSLRAEDTAVYYCARIVYHAGGGVTFDTRGQGTQVTVSS
light: B1 light
B7: A-CD137×CEA-M8 (bispecific antibody, human IgG1, kappa)
heavy: B1 heavy with F481R, M488V, E516D
light: B1 light
B8: Format A-BGA-5623 (bispecific antibody, human IgG1, kappa)
heavy: B1 heavy with L483V, M488V, F508K, V553I, Y565T, W566R, L571Q
light: B1 light
notes: Module ratio 2:2, inert Fc
B9: A-CD137×CEA-M7 (bispecific antibody, human IgG1, kappa)
heavy: B1 heavy with M488V, E516D
light: B1 light
B10: A-CD137×CEA-M2 (bispecific antibody)
heavy: B1 heavy with F481R
light: B1 light
notes: V35M as printed
B11: A-CD137×CEA-M4 (bispecific antibody, human IgG1, kappa)
heavy: B1 heavy with F481R, M488V
light: B1 light
B12: A-CD137×CEA-M6 (bispecific antibody)
heavy: B1 heavy with F481R, E516D
light: B1 light
notes: V35M as printed
B13: A-CD137×CEA-M5 (bispecific antibody)
heavy: B1 heavy with E516D
light: B1 light
notes: V35M as printed
B14: CH3-BGA-4712-M3 (other)
chain: GQPREPQVYTLPPSREEMTKNQVSLTCLVKGFYPSDIAVEWESNGQPENNYKTTPPVLDSDGSFFLYSKLTVDKSRWQQGNVFSCSVMHEALHNHYTQKSLSLSPGKGGGGSEVQLLESGGGLVQPGGSLRLSCAASGFTLSAEDVGWVRQAPGKGLEWVSAILDFGGSTYYAESVKGRFTISRDNAKNTLYLQMSSLRAEDTAVYYCARVVYHAGGGVTFDYWGQGTLVTVSS
notes: Tested as bacterial supernatant; expressed as a dimer of CH3 fusion proteins from the phagemid; also called CH3 fusion of anti-huCD137 VH domain antibody
B15: CH3-BGA-4712-M3 with W47F mutation in VH region (other)
chain: B14 chain with W159F
B16: CH3-BGA-4712-M3 with W47Y mutation in VH region (other)
chain: B14 chain with W159Y
B17: CH3-BGA-4712-M3 with W47G mutation in VH region (other)
chain: B14 chain with W159G
notes: built from pieces so that position 47 counts on the VH

How the values were obtained:
human CD137 ECD-mIgG2a [1] = molecular target: human CD137 ECD-mIgG2a (human); experiment: SPR, antibody captured on anti-human Fc surface; analyte taken as human CD137 ECD-mIgG2a
[2] = molecular target: T1, full-length human CD137 (huCD137) (human, UniProt Q07011 24-255); experiment: flow cytometry on Hut78/huCD137 cells
T1 construct: On transduced Hut78 cells (Hut78/huCD137), transiently on HEK293 cells, or natively on PBMC/T cells; also called TNFRSF9; 4-1BB

[3] = molecular target: T1, full-length human CD137 (huCD137); experiment: cell-based or functional assay
[4] = molecular target: T1, full-length human CD137 (huCD137); experiment: flow cytometry on Hut78/huCD137 cells; remark: listed apart in the source
Description: Cell fluorescence was quantified using a flow cytometer (Guava easyCyte™ 8HT, Merck-Millipore, USA).

[5] = molecular target: T1, full-length human CD137 (huCD137); experiment: cell-based or functional assay; remark: listed apart in the source
human CD137 ECD-mIgG2a [6] = molecular target: human CD137 ECD-mIgG2a (human); experiment: SPR, multispecific antibody captured on anti-human IgG Fc chip, human CD137 ECD-mIgG2a flowed over
Protocol: Briefly, anti-human IgG (Fc) antibody was immobilized on an activated CM5 biosensor chip (Cat.: BR100839, GE Life Sciences). Anti-huCD137 monoclonal antibodies or multispecific antibodies were flown through the chip surface and captured by anti-human IgG (Fc) antibody. […] The equilibrium dissociation constant (KD)) was calculated as the ratio koff/kₒₙ.

human CD137 ECD-mIgG2a [7] = molecular target: human CD137 ECD-mIgG2a (human); experiment: SPR (BIAcore T-200): antibody captured on anti-human IgG (Fc) CM5 chip, human CD137 ECD-mIgG2a as analyte, 1:1 Langmuir fit
Protocol: Characterization of anti-huCD137 VH domain antibodies were made by SPR assays using BIAcore™ T-200 (GE Life Sciences). Briefly, anti-human IgG (Fc) antibody was immobilized on an activated CM5 biosensor chip (Cat.: BR100839, GE Life Sciences). Anti-huCD137 domain antibodies were flowed over the chip surface and captured by anti-human IgG (Fc) antibody. […] The equilibrium dissociation constant (KD) was calculated as the ratio koff/kₒₙ.

human CD137 ECD-mIgG2a [8] = molecular target: human CD137 ECD-mIgG2a (human); experiment: ELISA on coated human CD137-ECD-mIgG2a with supernatant containing the CH3 fusion [panel B]

T1 sequence (Q07011 24-255 limits assumed): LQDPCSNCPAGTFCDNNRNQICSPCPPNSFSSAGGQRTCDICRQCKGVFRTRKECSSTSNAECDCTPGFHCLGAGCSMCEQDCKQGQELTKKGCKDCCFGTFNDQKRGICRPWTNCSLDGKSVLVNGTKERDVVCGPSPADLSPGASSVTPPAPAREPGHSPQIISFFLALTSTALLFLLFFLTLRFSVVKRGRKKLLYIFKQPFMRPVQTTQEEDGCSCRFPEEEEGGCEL
human CD137 ECD-mIgG2a (human), sequence (chain, as listed by the source limits assumed): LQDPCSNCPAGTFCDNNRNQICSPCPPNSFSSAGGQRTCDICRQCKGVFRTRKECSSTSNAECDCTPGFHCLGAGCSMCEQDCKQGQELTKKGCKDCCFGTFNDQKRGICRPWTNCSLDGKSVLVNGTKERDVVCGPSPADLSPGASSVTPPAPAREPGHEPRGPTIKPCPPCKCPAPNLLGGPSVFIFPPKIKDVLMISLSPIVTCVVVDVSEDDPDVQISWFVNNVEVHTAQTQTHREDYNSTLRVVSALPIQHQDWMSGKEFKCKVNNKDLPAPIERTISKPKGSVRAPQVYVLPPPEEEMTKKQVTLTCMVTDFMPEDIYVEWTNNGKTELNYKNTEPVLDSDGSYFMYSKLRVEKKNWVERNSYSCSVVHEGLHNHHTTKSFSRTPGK

Binder	Kd (human CD137 ECD-mIgG2a [1]) [nM]	koff (human CD137 ECD-mIgG2a [1]) [s⁻¹]	kon (human CD137 ECD-mIgG2a [1]) [M⁻¹ s⁻¹]	Functional assay EC50 (ug/ml), in vitro CD137 activation (PBMC cytokine release) [3] [µg/mL]	also measured
B1	586	0.00455	7770		binding result [2]: binds
B2				25.1	
B3				1.16	
B4				4.69	
B5				1.76	
B6				0.18	
B7	184	0.0534	290000		EC50 (read off the curve) [2]: ~0.5 µg/mL
B8				0.31	EC50 [4]: 0.38 µg/mL; Functions EC50(ug/ml), PBMC based cytokine release assay [5]: 0.341 µg/mL; Functions Top, PBMC based cytokine release assay [5]: 2510; Kd (human CD137 ECD-mIgG2a [6]): 94.8 nM; Kd (human CD137 ECD-mIgG2a [7]): 111 nM; koff (human CD137 ECD-mIgG2a [7]): 0.0029 s⁻¹; kon (human CD137 ECD-mIgG2a [7]): 26100 M⁻¹ s⁻¹
B9	266	0.003	11300		EC50 (read off the curve) [2]: ~0.1 µg/mL
B10	232	0.0105	45200		EC50 (read off the curve) [2]: ~2 µg/mL
B11	194	0.0247	127000		binding result [2]: binds
B12	767	0.0114	14800		EC50 (read off the curve) [2]: ~2 µg/mL
B13	646	0.00574	8890		EC50 (read off the curve) [2]: ~2 µg/mL
B14					binding result (human CD137 ECD-mIgG2a [8]): binds
B15					binding result (human CD137 ECD-mIgG2a [8]): no binding
B16					binding result (human CD137 ECD-mIgG2a [8]): no binding
B17					binding result (human CD137 ECD-mIgG2a [8]): no binding
